Source: paper PMC11741300
Where two headings read alike, the source gives them in different places.

Assays:
[1] = target: T1, PARP1 (unlabeled) (Homo sapiens, UniProt P09874 1-1014); experiment: mass photometry
[2] = target: T2, Cy3-PARP1 (Homo sapiens, UniProt P09874 1-1014); experiment: smTIRFM
[3] = target: T2, Cy3-PARP1; experiment: smTIRFM; remark: listed apart in the source
[4] = target: T2, Cy3-PARP1; experiment: smTIRFM; remark: listed apart in the source
[5] = target: T1, PARP1 (unlabeled); experiment: mass photometry; remark: listed apart in the source
[6] = target: T2, Cy3-PARP1; experiment: smTIRFM; remark: listed apart in the source
[7] = target: T1, PARP1 (unlabeled); experiment: mass photometry; remark: listed apart in the source

T1 sequence (P09874 whole entry): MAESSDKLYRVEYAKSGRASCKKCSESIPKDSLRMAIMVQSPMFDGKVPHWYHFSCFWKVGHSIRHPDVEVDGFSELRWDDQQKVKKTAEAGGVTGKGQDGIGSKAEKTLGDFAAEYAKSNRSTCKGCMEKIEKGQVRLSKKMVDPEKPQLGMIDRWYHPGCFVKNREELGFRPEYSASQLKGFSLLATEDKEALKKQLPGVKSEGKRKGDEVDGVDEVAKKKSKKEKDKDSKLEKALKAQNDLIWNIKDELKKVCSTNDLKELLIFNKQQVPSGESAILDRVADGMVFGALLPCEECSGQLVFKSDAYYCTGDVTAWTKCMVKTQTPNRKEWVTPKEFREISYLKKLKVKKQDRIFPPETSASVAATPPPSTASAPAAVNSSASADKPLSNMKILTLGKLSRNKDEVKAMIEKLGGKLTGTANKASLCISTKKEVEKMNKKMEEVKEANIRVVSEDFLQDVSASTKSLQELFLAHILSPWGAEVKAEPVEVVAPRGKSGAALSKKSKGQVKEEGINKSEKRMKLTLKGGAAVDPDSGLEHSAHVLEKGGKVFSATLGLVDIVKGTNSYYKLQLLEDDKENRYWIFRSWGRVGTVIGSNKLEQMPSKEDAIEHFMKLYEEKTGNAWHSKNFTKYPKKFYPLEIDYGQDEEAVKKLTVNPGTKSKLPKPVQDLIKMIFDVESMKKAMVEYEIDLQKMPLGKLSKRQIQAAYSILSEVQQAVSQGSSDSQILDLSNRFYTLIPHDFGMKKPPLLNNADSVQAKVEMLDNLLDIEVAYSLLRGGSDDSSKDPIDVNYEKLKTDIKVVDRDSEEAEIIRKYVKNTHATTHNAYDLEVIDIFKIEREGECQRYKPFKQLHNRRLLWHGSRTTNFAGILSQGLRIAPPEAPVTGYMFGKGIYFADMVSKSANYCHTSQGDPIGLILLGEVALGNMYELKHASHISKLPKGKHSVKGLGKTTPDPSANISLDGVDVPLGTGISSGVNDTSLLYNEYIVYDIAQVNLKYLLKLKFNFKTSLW
T2 sequence (P09874 whole entry): as above

B1: cKITG4-PT (MP) (structured_DNA)
DNA: CATGTAGTCACTATGATTAGGCATAGTGACTACATGGGGCGGGCGCGAGGGAGGGGAGGATCTAATGCATTAAGTTCGCTTAATGCATTAGAT
binding result [1]: binds

B2: cKITG4-PT (smTIRFM) (structured_DNA)
DNA 1: TGGCGACGGCAGCGAGGCGGGCGGGCGCGAGGGAGGGGAGGTCTAATGCATTAAGTTCCTTAATGCATTAGA
DNA 2: GCCTCGCTGCCGTCGCCA
modifications: 3' biotin on strand 2
Kd [2]: 3.24 ± 0.09 nM

B3: dsDNA (smTIRFM) (dsDNA)
DNA 1: CATGTAGTCACTATGCTACTGTG
DNA 2: CACAGTAGCATAGTGACTACATG
modifications: 3' biotin on strand 1
binding result [3]: binds

B4: nicked (smTIRFM) (structured_DNA)
DNA 1: TGGCGACGGCAGCGAGGCTCTAATGCATTAAGTTCCTTAATGCATTAGA
DNA 2: GCCTCGCTGCCGTCGCCA
modifications: 3' biotin on strand 2
Kd [2]: 3.96 ± 0.2 nM
Kd [4]: 2.67 ± 0.16 nM

B5: ssDNA (dT)90 (MP) (ssDNA)
DNA: TTTTTTTTTTTTTTTTTTTTTTTTTTTTTTTTTTTTTTTTTTTTTTTTTTTTTTTTTTTTTTTTTTTTTTTTTTTTTTTTTTTTTTTTTT
binding result [5]: no binding

GGGCGGGCGCGAGGGAGGGGAGG (structured_DNA, 3' biotin) [cKITG4 (smTIRFM)]
Kd [2]: 0.04 ± 0.002 nM

TGGGTGGGTAGGGTGGGTTT (structured_DNA, 3' biotin) [cMYCG4]
binding result [6]: binds

B6: nicked (MP) (structured_DNA)
DNA: CATGTAGTCACTATGAGGCATAGTGACTACATGATCTAATGCATTAAGTTCCTTAATGCATTAGAT
binding result [7]: binds
